Laboratory results reported in US20210061859A1, “NTCP Inhibitor” (The University of Tokyo, priority 2018, published 2021).
Where a SMILES comes first, the peptide text is derived from it. Bridges are numbered along the chain shown (N, C = ends). [ ]: non-standard residue; d: D form. NMeS = CN[C@@H](CO)C(=O)O

T1: human NTCP (Homo sapiens, UniProt Q14973)
T1 construct: made in house; host or cells: wheat germ cell-free protein synthesis system
T1 sequence (Q14973 1-349): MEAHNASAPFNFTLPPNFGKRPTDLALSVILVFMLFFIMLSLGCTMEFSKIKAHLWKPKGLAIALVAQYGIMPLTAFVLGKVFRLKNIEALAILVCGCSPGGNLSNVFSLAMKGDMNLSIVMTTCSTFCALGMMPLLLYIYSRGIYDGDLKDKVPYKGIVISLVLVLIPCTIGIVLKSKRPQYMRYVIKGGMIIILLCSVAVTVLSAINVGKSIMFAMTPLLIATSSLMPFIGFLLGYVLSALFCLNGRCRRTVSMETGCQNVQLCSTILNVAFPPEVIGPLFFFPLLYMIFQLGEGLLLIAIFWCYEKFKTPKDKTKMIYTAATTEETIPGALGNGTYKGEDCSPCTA

T2: His-tagged recombinant NTCP protein (human sodium taurocholate cotransporting polypeptide) (human), Q14973
T2 chain: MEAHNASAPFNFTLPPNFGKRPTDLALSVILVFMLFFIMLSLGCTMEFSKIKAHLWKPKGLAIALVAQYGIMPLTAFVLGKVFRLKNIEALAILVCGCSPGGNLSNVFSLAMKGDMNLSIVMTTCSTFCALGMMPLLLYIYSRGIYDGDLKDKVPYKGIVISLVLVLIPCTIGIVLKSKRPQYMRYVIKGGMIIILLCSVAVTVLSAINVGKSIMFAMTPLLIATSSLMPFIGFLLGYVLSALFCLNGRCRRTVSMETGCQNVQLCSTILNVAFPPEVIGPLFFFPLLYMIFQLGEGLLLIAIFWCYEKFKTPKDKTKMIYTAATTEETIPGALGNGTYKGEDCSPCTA


How the values were obtained:
[1] = target: T1, human NTCP; assay: Surface plasmon resonance binding to immobilized recombinant NTCP; conditions: Kd, single-cycle kinetics, 1:1 binding model, NTCP immobilized on NTA-Ni2+
Experimental: (§1) FIG. 7 is a diagram showing the NTCP association constant of a peptide identified by first RaPID screening. A single-cycle reaction kinetics experiment was conducted using NTCP immobilized on surface (NTA-Ni^2+) involving varying concentrations of a cyclic peptide analyte. In each case, as shown in the drawing, the peptide was tested with 4-fold serial dilutions starting from the highest concentration of 200 or 1000 nM. A dissociation constant (KD) was determined using a 1:1 binding model.
as §1, with “9” for “7”, “focused library” for “first”, “association constant” for “reaction kinetics”
The association constant of each peptide for human NTCP was measured using a Biacore T200 apparatus (GE Healthcare Japan Corp.). The running buffer solution used was HBS-P+ (10 mM HEPES, 150 mM NaCl, and 0.05 vol % surfactant P20, pH 7.4) containing 0.1 vol % DMSO and 1 mM β-dodecyl-maltoside. 100 nM recombinant NTCP was immobilized on a NTA chip treated with Ni^2+ according to the manufacturer's instructions (baseline response: 1000 to 3000 refraction units). Peptides were injected as analytes at a flow rate of 60 μL/min, and association constants were modelled using a 1:1 binding model.

[2] = target: T2, His-tagged recombinant NTCP protein …; assay: SPR (Biacore T200), single-cycle kinetics, His-NTCP on Ni2+-NTA chip, peptide as analyte, 1:1 model

Kd [2] [nM] | Molecule | Kd [1] [nM]
 | CC[C@H](C)[C@@H]1NC(=O)[C@H](Cc2ccc(O)cc2)NC(=O)[C@H](CC(C)C)NC(=O)[C@H](C)NC(=O)[C@H]([C@@H](C)O)NC(=O)[C@H](CC(N)=O)NC(=O)[C@H](Cc2c[nH]c3ccccc23)NC(=O)[C@H](CCC(=O)O)NC(=O)[C@@H]2CCCN2C(=O)[C@H](Cc2ccc(O)cc2)NC(=O)[C@H](Cc2c[nH]c3ccccc23)NC(=O)[C@H](Cc2ccc(O)cc2)NC(=O)[C@H](Cc2c[nH]cn2)NC(=O)[C@@H](Cc2ccc(O)cc2)NC(=O)CSC[C@@H](C(=O)NCC(N)=O)NC(=O)[C@@H]2CCCN2C(=O)[C@H](Cc2c[nH]c3ccccc23)NC1=O [D3] ({CH2CO}-[dY]HYWYPEWNTALYIWPCG-NH2; thioether N-17) | 50
 | CC(C)C[C@@H]1NC(=O)[C@H](Cc2ccc(O)cc2)NC(=O)CSC[C@@H](C(=O)NCC(N)=O)NC(=O)[C@H](CC(C)C)NC(=O)[C@H](CO)NC(=O)[C@H]([C@@H](C)O)NC(=O)[C@H](C(C)C)NC(=O)[C@H]([C@@H](C)O)NC(=O)[C@H](Cc2c[nH]c3ccccc23)NC(=O)[C@H](CC(N)=O)NC(=O)[C@H](CO)NC(=O)[C@H](Cc2c[nH]cn2)NC(=O)[C@H](Cc2c[nH]c3ccccc23)NC(=O)[C@H]([C@@H](C)O)NC(=O)[C@H](Cc2c[nH]c3ccccc23)NC(=O)[C@H]([C@@H](C)O)NC(=O)[C@H](Cc2ccc(O)cc2)NC1=O [L1] ({CH2CO}-YLYTWTWHSNWTVTSLCG-NH2; thioether N-17) | 21
 | CC(C)C[C@@H]1NC(=O)[C@H](CC(=O)O)NC(=O)[C@H](CC(C)C)NC(=O)[C@H](Cc2ccccc2)NC(=O)[C@H](Cc2c[nH]c3ccccc23)NC(=O)[C@H](CO)NC(=O)[C@H](CCCNC(=N)N)NC(=O)[C@H](CCC(=O)O)NC(=O)[C@H](C)NC(=O)[C@H](Cc2c[nH]c3ccccc23)NC(=O)[C@H](CC(C)C)NC(=O)[C@H](CC(C)C)NC(=O)[C@H](Cc2c[nH]c3ccccc23)NC(=O)[C@H](C(C)C)NC(=O)[C@H](Cc2ccc(O)cc2)NC(=O)CSC[C@@H](C(=O)NCC(N)=O)NC(=O)CNC1=O [L2] ({CH2CO}-YVWLLWAERSWFLDLGCG-NH2; thioether N-17) | 374
 | CC[C@H](C)[C@@H]1NC(=O)[C@H](Cc2c[nH]c3ccccc23)NC(=O)[C@H](CC(C)C)NC(=O)[C@H](Cc2ccc(O)cc2)NC(=O)CSC[C@@H](C(=O)NCC(N)=O)NC(=O)CNC(=O)[C@H](CC(C)C)NC(=O)[C@H](CC(=O)O)NC(=O)[C@H](Cc2ccccc2)NC(=O)[C@H]([C@@H](C)O)NC(=O)[C@H](Cc2ccc(O)cc2)NC(=O)[C@H](Cc2c[nH]c3ccccc23)NC(=O)[C@H](CC(N)=O)NC(=O)[C@H](CCC(N)=O)NC(=O)[C@H](Cc2c[nH]cn2)NC(=O)[C@H](Cc2ccccc2)NC1=O [L3] ({CH2CO}-YLWIFHQNWYTFDLGCG-NH2; thioether N-16) | 13
 | CC(C)C[C@@H]1NC(=O)[C@H](Cc2ccc(O)cc2)NC(=O)CSC[C@@H](C(=O)NCC(N)=O)NC(=O)[C@H](C(C)C)NC(=O)[C@H](CC(N)=O)NC(=O)[C@H](Cc2ccc(O)cc2)NC(=O)[C@H](C)NC(=O)[C@H](Cc2ccc(O)cc2)NC(=O)[C@H](CO)NC(=O)[C@H]([C@@H](C)O)NC(=O)[C@H](CC(N)=O)NC(=O)[C@@H]2CCCN2C(=O)[C@H](Cc2c[nH]c3ccccc23)NC(=O)[C@H]([C@@H](C)O)NC(=O)[C@H](Cc2c[nH]c3ccccc23)NC(=O)[C@H](CC(C)C)NC(=O)[C@H](Cc2ccc(O)cc2)NC1=O [L4] ({CH2CO}-YLYLWTWPNTSYAYNVCG-NH2; thioether N-17) | 30
 | CC[C@H](C)[C@@H]1NC(=O)[C@H](Cc2ccc(O)cc2)NC(=O)[C@H](Cc2ccc(O)cc2)NC(=O)[C@H](Cc2c[nH]cn2)NC(=O)[C@H](Cc2c[nH]cn2)NC(=O)[C@H]([C@@H](C)O)NC(=O)[C@H](CC(N)=O)NC(=O)[C@H](Cc2c[nH]c3ccccc23)NC(=O)[C@H]([C@@H](C)O)NC(=O)[C@H](Cc2ccc(O)cc2)NC(=O)CSC[C@@H](C(=O)NCC(N)=O)NC(=O)[C@H](CC(N)=O)NC(=O)[C@H](CC(C)C)NC(=O)[C@H](Cc2c[nH]c3ccccc23)NC1=O [L5] ({CH2CO}-YTWNTHHYYIWLNCG-NH2; thioether N-14) | 4
 | CC[C@H](C)[C@@H]1NC(=O)[C@H](Cc2c[nH]cn2)NC(=O)[C@H]([C@@H](C)CC)NC(=O)[C@H](CO)N(C)C(=O)[C@@H]2CCCN2C(=O)[C@H](Cc2ccc(O)cc2)NC(=O)[C@H](Cc2ccc(O)cc2)NC(=O)[C@H]([C@@H](C)CC)NC(=O)[C@H](Cc2ccc(O)cc2)NC(=O)[C@H](CC(N)=O)NC(=O)[C@@H](Cc2ccc(O)cc2)NC(=O)CSC[C@@H](C(=O)N[C@H](C(N)=O)[C@@H](C)O)NC(=O)[C@H](CC(C)C)NC(=O)[C@H](Cc2ccc(O)cc2)NC(=O)[C@H](Cc2ccccc2)NC1=O [PD1] ({CH2CO}-[dY]NYIYYP[NMeS]IHIFYLCT-NH2; thioether N-15) | 149
13 | YLWIFHQNWYTFDLGCG (modifications not checked) [NTCP-L3] | 
2270 | YILVYPELHLFLLYSCG (modifications not checked) [NTCP-D4] | 
10 | YTWTWQNSFIWIYCT (modifications not checked) [WL5] | 
4 | YTWNTHHYYIWLNCG (modifications not checked) [NTCP-L5] | 
15 | YALIWTWSQYYQYYSCT (modifications not checked) [WD3] | 
50 | YHYWYPEWNTALYIWPCG (modifications not checked) [NTCP-D3] | 
11 | YTFTYAQIWIWYYGCT (modifications not checked) [WD4] | 
360 | YTYKYSGIWIWIWCT (modifications not checked) [WL1] | 
21 | YLYTWTWHSNWTVTSLCG (modifications not checked) [NTCP-L1] | 
30 | YLYLWTWPNTSYAYNVCG (modifications not checked) [NTCP-L4] | 
36 | YTWTWNSAFLYVYCT (modifications not checked) [WL6] | 
14 | YTWIWGGLYVVYFPCT (modifications not checked) [WD2] | 
149 | YNYIYYPSIHIFYLCT (modifications not checked) [PD1] | 
374 | YVWLLWAERSWFLDLGCG (modifications not checked) [NTCP-L2] | 
14 | YWWAINPHIHVFTWPCG (modifications not checked) [NTCP-D2] | 
57 | YTWTWHSAYLYVFCT (modifications not checked) [WL3] | 
